# Molecular target: the molecule itself
# Assay: SEC + SEC-MALS + other: negative stain electron microscopy; self-assembly of the protomer into the nanoparticle; Superose 6 10/300 at 0.5 ml/min with DAWN HELEOS II and Optilab T-rEX detectors, glycan mass corrected by protein-conjugate analysis; nsEM at 0.1 mg/ml in HBS, uranyl formate
row,Protein,binding result
1,"C-term WT 60mer (other, glycosylated (engineered glycosylation sites), Plasmodium falciparum circumsporozoite protein (PfCSP), strain 3D7; wild-type C-terminal αTSR domain, without the C-terminal linker; linker; C-terminal extension with two added glycosylation sites; Self-assembling lumazine synthase nanoparticle; cloned into pHLsec between the leader and a double stop codon (AgeI/KpnI); also called wild-type C-terminal domain on 60mer; WT αTSR 60mer; source: …) EPSDKHIKEYLNKIQNSLSTEWSPCSVTCGNGIQVRIKPGSANKPKDELDYANDIEKKICKMEKCGGSMQIYEGKLTAEGLRFGIVASRANHALVDRLVEGAIDAIVRHGGREEDITLVRVCGSWEIPVAAGELARKENISAVIAIGVLCRGATPSFDYIASEVSKGLADLSLELRKPITFGVITADTLEQAIEAAGTCHGNKGWEAALCAIEMANLFKSLRGGSNGTGGSGGSNGT",binds
2,"C-term MD1 60mer (other, glycosylated (engineered glycosylation sites), Plasmodium falciparum circumsporozoite protein (PfCSP), strain 3D7; C-terminal αTSR domain, Rosetta-designed variant MD1; linker; C-terminal extension with two added glycosylation sites; Self-assembling lumazine synthase nanoparticle; cloned into pHLsec between the leader and a double stop codon (AgeI/KpnI); also called modified-1 C-term 60mer; MD1 αTSR 60mer; source: FreeStyle 293 F cells, …) EPSDNHTKSYYAKIQNSLSTEWSPCSVTCGNGIQVRIKPGSANKPKANLTYANDIEKKICKMEKCGGSMQIYEGKLTAEGLRFGIVASRANHALVDRLVEGAIDAIVRHGGREEDITLVRVCGSWEIPVAAGELARKENISAVIAIGVLCRGATPSFDYIASEVSKGLADLSLELRKPITFGVITADTLEQAIEAAGTCHGNKGWEAALCAIEMANLFKSLRGGSNGTGGSGGSNGT",binds
3,"P15 24mer (other, glycosylated (engineered glycosylation sites), Plasmodium falciparum circumsporozoite protein (PfCSP), strain 3D7; Self-assembling ferritin nanoparticle; cloned into pHLsec between the leader and a double stop codon (AgeI/KpnI); source: FreeStyle 293 F cells, transfected, purified (snowdrop lectin agarose, Superose 6 SEC); copies: 24) DNEKLRKPKHKKLKQLSKDIIKLLNEQVNKEMQSSNLYMSMSSWCYTHSLDGAGLFLFDHAAEEYEHAKKLIIFLNENNVPVNLTSISAPEHNFTGLTQIFQKAYEHEQNISESINNITDHAIKSKDHATFNFLQWYVAEQHEEEVLFKDILDKIELIGNENHGLYLADQYVKGIAKSRKS",binds
4,"P8 60mer (other, glycosylated (engineered glycosylation sites), Plasmodium falciparum circumsporozoite protein (PfCSP), strain 3D7; linker between the peptide and lumazine synthase; C-terminal extension with two added glycosylation sites; Self-assembling lumazine synthase nanoparticle; cloned into pHLsec between the leader and a double stop codon (AgeI/KpnI); source: FreeStyle 293 F cells, transfected, purified (snowdrop lectin agarose, Superose 6 SEC); …) NYYGKQENWYSLKKNGSGNGTGGSMQIYEGKLTAEGLRFGIVASRANHALVDRLVEGAIDAIVRHGGREEDITLVRVCGSWEIPVAAGELARKENISAVIAIGVLCRGATPSFDYIASEVSKGLADLSLELRKPITFGVITADTLEQAIEAAGTCHGNKGWEAALCAIEMANLFKSLRGGSNGTGGSGGSNGT",binds
5,"C-term MD1 24mer (other, glycosylated (engineered glycosylation sites), Plasmodium falciparum circumsporozoite protein (PfCSP), strain 3D7; C-terminal αTSR domain, Rosetta-designed variant MD1; linker; Self-assembling ferritin nanoparticle; cloned into pHLsec between the leader and a double stop codon (AgeI/KpnI); also called modified-1 C-term 24mer; MD1 αTSR 24mer; source: FreeStyle 293 F cells, transfected, purified (snowdrop lectin agarose, Superose 6 SEC); …) EPSDNHTKSYYAKIQNSLSTEWSPCSVTCGNGIQVRIKPGSANKPKANLTYANDIEKKICKMEKCGGSLSKDIIKLLNEQVNKEMQSSNLYMSMSSWCYTHSLDGAGLFLFDHAAEEYEHAKKLIIFLNENNVPVNLTSISAPEHNFTGLTQIFQKAYEHEQNISESINNITDHAIKSKDHATFNFLQWYVAEQHEEEVLFKDILDKIELIGNENHGLYLADQYVKGIAKSRKS",binds
6,"C-term WT 24mer (other, glycosylated (engineered glycosylation sites), Plasmodium falciparum circumsporozoite protein (PfCSP), strain 3D7; wild-type C-terminal αTSR domain, without the C-terminal linker; linker; Self-assembling ferritin nanoparticle; cloned into pHLsec between the leader and a double stop codon (AgeI/KpnI); also called wild-type C-terminal domain on 24mer; WT αTSR 24mer; source: FreeStyle 293 F cells, transfected, purified (snowdrop lectin agarose, …)) EPSDKHIKEYLNKIQNSLSTEWSPCSVTCGNGIQVRIKPGSANKPKDELDYANDIEKKICKMEKCGGSLSKDIIKLLNEQVNKEMQSSNLYMSMSSWCYTHSLDGAGLFLFDHAAEEYEHAKKLIIFLNENNVPVNLTSISAPEHNFTGLTQIFQKAYEHEQNISESINNITDHAIKSKDHATFNFLQWYVAEQHEEEVLFKDILDKIELIGNENHGLYLADQYVKGIAKSRKS",binds
7,"P9 60mer (other, glycosylated (engineered glycosylation sites), Plasmodium falciparum circumsporozoite protein (PfCSP), strain 3D7; linker between the peptide and lumazine synthase; C-terminal extension with two added glycosylation sites; Self-assembling lumazine synthase nanoparticle; cloned into pHLsec between the leader and a double stop codon (AgeI/KpnI); source: FreeStyle 293 F cells, transfected, purified (snowdrop lectin agarose, Superose 6 SEC); …) KQENWYSLKKNSRSLGSGNGTGGSMQIYEGKLTAEGLRFGIVASRANHALVDRLVEGAIDAIVRHGGREEDITLVRVCGSWEIPVAAGELARKENISAVIAIGVLCRGATPSFDYIASEVSKGLADLSLELRKPITFGVITADTLEQAIEAAGTCHGNKGWEAALCAIEMANLFKSLRGGSNGTGGSGGSNGT",binds
8,"P8 24mer (other, glycosylated (engineered glycosylation sites), Plasmodium falciparum circumsporozoite protein (PfCSP), strain 3D7; Self-assembling ferritin nanoparticle; cloned into pHLsec between the leader and a double stop codon (AgeI/KpnI); source: FreeStyle 293 F cells, transfected, purified (snowdrop lectin agarose, Superose 6 SEC); copies: 24) NYYGKQENWYSLKKNLSKDIIKLLNEQVNKEMQSSNLYMSMSSWCYTHSLDGAGLFLFDHAAEEYEHAKKLIIFLNENNVPVNLTSISAPEHNFTGLTQIFQKAYEHEQNISESINNITDHAIKSKDHATFNFLQWYVAEQHEEEVLFKDILDKIELIGNENHGLYLADQYVKGIAKSRKS",binds
9,"J3 24mer (other, glycosylated (engineered glycosylation sites), Plasmodium falciparum circumsporozoite protein (PfCSP), strain 3D7; J3, full-length junctional peptide beginning with Region I; Self-assembling ferritin nanoparticle; cloned into pHLsec between the leader and a double stop codon (AgeI/KpnI); also called peptide J3-24mer; source: FreeStyle 293 F cells, transfected, purified (snowdrop lectin agarose, Superose 6 SEC); copies: 24) KLKQPADGNPDPNANPNVDPNANPNVDPNANPNVDPLSKDIIKLLNEQVNKEMQSSNLYMSMSSWCYTHSLDGAGLFLFDHAAEEYEHAKKLIIFLNENNVPVNLTSISAPEHNFTGLTQIFQKAYEHEQNISESINNITDHAIKSKDHATFNFLQWYVAEQHEEEVLFKDILDKIELIGNENHGLYLADQYVKGIAKSRKS",binds
10,"J3 60mer (other, glycosylated (engineered glycosylation sites), Plasmodium falciparum circumsporozoite protein (PfCSP), strain 3D7; J3, full-length junctional peptide beginning with Region I; linker between the peptide and lumazine synthase; C-terminal extension with two added glycosylation sites; Self-assembling lumazine synthase nanoparticle; cloned into pHLsec between the leader and a double stop codon (AgeI/KpnI); also called peptide J3-60mer; source: …) KLKQPADGNPDPNANPNVDPNANPNVDPNANPNVDPGSGNGTGGSMQIYEGKLTAEGLRFGIVASRANHALVDRLVEGAIDAIVRHGGREEDITLVRVCGSWEIPVAAGELARKENISAVIAIGVLCRGATPSFDYIASEVSKGLADLSLELRKPITFGVITADTLEQAIEAAGTCHGNKGWEAALCAIEMANLFKSLRGGSNGTGGSGGSNGT",binds

# Source: publication PMC12627087, “mRNA delivery of circumsporozoite protein epitope-based malaria vaccines induces protection in a mouse model” (NPJ Vaccines, 2025)
